Experimental data taken from the supplement of paper PMC10567573.

Assay: protein stability index of a GFP-peptide fusion (GPS, HEK-293T) (PSI 1-6); higher = more stable
Conditions: c terminus: native
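Also: lentivirally expressed fusion library, cells FACS-sorted into six equal-sized GFP/DsRed ratio bins, PSI computed from sequencing read fractions per bin weighted by bin number.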

CQPISFSGFGAEDDDLGGLGLGPI [POLD2 addI]
protein stability index (parent: NP_006221.1): 2.66

EQRNSRWNTVLRAVKAKTHHLEPI [TRPA1 addI]
protein stability index (parent: NP_015628.1): 4.42

DGWIRVSSDNVADLHEKYSGSTPI [PSMB5 addI]
protein stability index (parent: NP_002788.1): 4.5

LPALFTDLYSQEITAEEAREALPI [SNF8 addI]
protein stability index (parent: NP_009172.2): 3.3
